Assay results reported in patent CN117180420A (DRAGONBOAT BIOPHARMACEUTICAL SHANGHAI CO LTD, dated 2023).

Molecular target: T1, CD47 on NUGC-4 cells / hCLDN18.2-NUGC-4 cells (human, UniProt Q08722 19-323)
T1 construct: whole, on cells; also called 内源CD47; 人CD47
Assay: flow cytometry, blocking of SIRPα-mFc binding to hCLDN18.2-NUGC-4 cells

T1 sequence (Q08722 19-323): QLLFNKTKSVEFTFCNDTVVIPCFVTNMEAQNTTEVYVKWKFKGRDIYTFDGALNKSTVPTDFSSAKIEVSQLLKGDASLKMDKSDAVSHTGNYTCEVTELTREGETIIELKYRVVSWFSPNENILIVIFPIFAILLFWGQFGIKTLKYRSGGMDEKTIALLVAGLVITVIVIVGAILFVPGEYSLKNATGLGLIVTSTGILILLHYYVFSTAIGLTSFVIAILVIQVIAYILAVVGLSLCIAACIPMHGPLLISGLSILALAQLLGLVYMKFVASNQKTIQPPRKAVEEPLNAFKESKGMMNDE

IC50: 1.98 µg/mL
B1: 抗体1F8 (WO2018075857A1中1F8抗体) (antibody, V domains shown)
VH: KVQLVESGGGLVKPGGSLRLSCAASGFTFSNAWMNWVRQAPGKGLEWVGRIKRKTDGETTDYAAPVKGRFSISRDDSKNTLYLQMNSLKTEDTAVYYCAGSNRAFDIWGQGTMVTVSA
VL: DIVMTQSPDSLAVSLGERATINCKSSQSVLYSSNNRNYLAWYQQKPGQPPKLLINQASTRASGVPDRFSGSGSGTEFTLIISSLHAEDVAIYYCQQYYTPPLAFGGGTKLEIK
